{
  "source": "patent US20020160955A1",
  "about": "(published 2002)",
  "binders": {"B1": {"name": "human IGFBP-1 (other, UniProt P08833 26-259, looked up)", "chain": "APWQCAPCSAEKLALCPPVSASCSEVTRSAGCGCCPMCALPLGAACGVATARCARGLSCRALPGEQQPLHALTRGQGACVQESDASAPHAAEAGSPESPESTEITEEELLDNFHLMAPSEEDHSILWDAISTYDGSKALHVTNIKKWKEPCRIELYRVVESLAKAQETSGEEISKFYLPNCNKNGFYHSRQCETSMDGEAGLCWCVYPWNGKRIPGSPEIRGDPNCQIYFNVQN", "notes": "secreted recombinant protein purified from conditioned medium"}},
  "key": {"[1]": {"target": "T1, IGF-I P66A (G1S-A70V background) displayed on phage (human; bacteriophage M13)", "T1 construct": "monovalent M13 phage display; not shown: M13 gene III protein fragment (residues 249-406), the phage display carrier, and its junction to IGF-I", "assay": "competitive phage ELISA", "description": "(§1) Phage particles were harvested and resuspended in PBS buffer as described in Lowman, H. B., “Phage Display of Peptide Libraries on Protein Scaffolds,” in Cabilly, S. (ed.), Combinatorial Peptide Library Protocols (Humana Press Inc.: Totowa, N.J., 1998), pp. 249-264. Then phage concentrations were normalized to yield a maximal ELISA signal of 0.2-0.4 for each mutant (Lowman, in Cabilly, S. (ed.), supra). Threefold serial dilutions of soluble competitor were prepared on non-absorbent microtiter plates (Nunc, F, 96 wells) with binding buffer (0.5% TWEEN™ 20/PBS) containing phage at the previously-determined concentrations. […] After blocking, the plates containing immobilized target were washed with 0.05% TWEEN™/PBS buffer and subsequently incubated with 80 μl/well of the premixed phage-competitor solutions for 1 hour at room temperature. After washing, bound phage was detected with 80 μl/well of a solution containing a primary rabbit anti-phage polyclonal antibody and a secondary goat anti-rabbit monoclonal antibody-horseradish peroxidase conjugate in 0.5% TWEEN 20™/PBS. o-Phenylenediamine (Sigma) and tetramethylbenzidine (Kirkegaard and Perry) were used as chromogenic substrates, resulting in product detection at 492 and 450 nm, respectively. IC₅₀ values were determined by fitting the binding data to a generic saturation curve (Lowman, in Cabilly, S. (ed.), supra). […] Numbers in Table I represent mean +standard deviation of individually assessed IC₅₀ values.\n(§2) At least two different clones of every mutant were tested."}, "[2]": {"target": "T2, IGF-I E3A (G1S-A70V background) displayed on phage (human; bacteriophage M13, UniProt P69168 267-424)", "T2 chain": "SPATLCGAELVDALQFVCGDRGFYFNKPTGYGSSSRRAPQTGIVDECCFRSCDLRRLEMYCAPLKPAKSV", "assay": "competitive phage ELISA", "description": "as §1, §2"}, "[3]": {"target": "T3, IGF-I G22A (G1S-A70V background) displayed on phage (human; bacteriophage M13, not fully specified; Displayed monovalently on M13 phage as a C-terminal fusion to the gene III fragment, which is left out of the letters.)", "T3 construct": "monovalent M13 phage display; not shown: Display carrier: M13 gene III fragment (residues 249-406) and its junction", "T3 chain": "T2 chain with A3E, G22A", "assay": "competitive phage ELISA", "description": "as §1, §2"}, "[4]": {"target": "IGF-I V70A (G1S-A70V background) displayed on phage (human; bacteriophage M13, UniProt P69168 267-424)", "assay": "competitive phage ELISA", "description": "as §1, §2"}, "[5]": {"target": "T4, IGF-I E46A (G1S-A70V background) displayed on phage (human; bacteriophage M13)", "T4 construct": "monovalent M13 phage display", "T4 chain": "T2 chain with A3E, E46A", "assay": "competitive phage ELISA", "description": "as §1, §2"}, "[6]": {"target": "T5, IGF-I V44A (G1S-A70V background) displayed on phage (human; bacteriophage M13)", "T5 construct": "monovalent M13 phage display", "T5 chain": "T2 chain with A3E, V44A", "assay": "competitive phage ELISA", "description": "as §1, §2"}, "[7]": {"target": "T6, IGF-I T29A (G1S-A70V background) displayed on phage (human; bacteriophage M13)", "T6 construct": "monovalent M13 phage display; not shown: M13 gene III fragment (residues 249-406, display partner) and the junction to it", "T6 chain": "T2 chain with A3E, T29A", "assay": "competitive phage ELISA", "description": "as §1, §2"}, "[8]": {"target": "T7, IGF-I R37A (G1S-A70V background) displayed on phage (human; bacteriophage M13)", "T7 construct": "monovalent M13 phage display", "T7 chain": "T2 chain with A3E, R37A", "assay": "competitive phage ELISA", "description": "as §1, §2"}, "[9]": {"target": "T8, wild-type IGF-I displayed on phage (human; bacteriophage M13, UniProt P69168 267-424)", "T8 construct": "range 249-406; monovalent M13 phage display; also called IGF-I WT; double-mutation restoring wild-type IGF-I", "assay": "competitive phage ELISA", "description": "as §1, §2"}, "[10]": {"target": "T9, IGF-I L10A (G1S-A70V background) displayed on phage (human; bacteriophage M13)", "T9 construct": "monovalent M13 phage display", "T9 chain": "T2 chain with A3E, L10A", "assay": "competitive phage ELISA", "description": "as §1, §2"}, "[11]": {"target": "T10, IGF-I R56A (G1S-A70V background) displayed on phage (human; bacteriophage M13)", "T10 construct": "monovalent M13 phage display", "T10 chain": "T2 chain with A3E, R56A", "assay": "competitive phage ELISA", "description": "as §1, §2"}, "[12]": {"target": "T11, IGF-I G1S-A70V displayed on phage (human; bacteriophage M13)", "T11 construct": "monovalent M13 phage display; template of the alanine scan; also called G1S-A70V IGF-I; wild-type-like IGF-I variant; not shown: M13 gene III fragment (residues 249-406, display partner) and the junction to it", "assay": "competitive phage ELISA (FIG. 1)", "description": "Then phage concentrations were normalized to yield a maximal ELISA signal of 0.2-0.4 for each mutant (Lowman, in Cabilly, S. (ed.), supra). Threefold serial dilutions of soluble competitor were prepared on non-absorbent microtiter plates (Nunc, F, 96 wells) with binding buffer (0.5% TWEEN™ 20/PBS) containing phage at the previously-determined concentrations. […] After blocking, the plates containing immobilized target were washed with 0.05% TWEEN™/PBS buffer and subsequently incubated with 80 μl/well of the premixed phage-competitor solutions for 1 hour at room temperature. After washing, bound phage was detected with 80 μl/well of a solution containing a primary rabbit anti-phage polyclonal antibody and a secondary goat anti-rabbit monoclonal antibody-horseradish peroxidase conjugate in 0.5% TWEEN 20™/PBS. o-Phenylenediamine (Sigma) and tetramethylbenzidine (Kirkegaard and Perry) were used as chromogenic substrates, resulting in product detection at 492 and 450 nm, respectively. IC₅₀ values were determined by fitting the binding data to a generic saturation curve (Lowman, in Cabilly, S. (ed.), supra). […] Numbers in Table I represent mean +standard deviation of individually assessed IC₅₀ values."}},
  "note": "Substitutions are numbered along the chain they refer to.",
  "data": [
    {"binder": "B1", "values": [
      {"measurement": "IC50", "setting": "[1]", "value": 9.4, "unit": "nM"},
      {"measurement": "IC50", "setting": "[2]", "value": 278, "unit": "nM"},
      {"measurement": "IC50", "setting": "[3]", "value": 15.9, "unit": "nM"},
      {"measurement": "IC50", "setting": "[4]", "value": 19.1, "unit": "nM"},
      {"measurement": "IC50", "setting": "[5]", "value": 7.9, "unit": "nM"},
      {"measurement": "IC50", "setting": "[6]", "value": 18.8, "unit": "nM"},
      {"measurement": "IC50", "setting": "[7]", "value": 7.3, "unit": "nM"},
      {"measurement": "IC50", "setting": "[8]", "value": 12.3, "unit": "nM"},
      {"measurement": "IC50", "setting": "[9]", "value": 8.4, "unit": "nM"},
      {"measurement": "IC50", "setting": "[10]", "value": 311, "unit": "nM"},
      {"measurement": "IC50", "setting": "[11]", "value": 13.1, "unit": "nM"},
      {"measurement": "IC50", "setting": "[12]", "value": 8.5, "unit": "nM"}
    ]}
  ]
}
